According to article PMC8321558:

T1: RelA^N-terminal (purified RelA catalytic domains) (Escherichia coli)
T1 sequence (P0AG20 whole entry, looked up): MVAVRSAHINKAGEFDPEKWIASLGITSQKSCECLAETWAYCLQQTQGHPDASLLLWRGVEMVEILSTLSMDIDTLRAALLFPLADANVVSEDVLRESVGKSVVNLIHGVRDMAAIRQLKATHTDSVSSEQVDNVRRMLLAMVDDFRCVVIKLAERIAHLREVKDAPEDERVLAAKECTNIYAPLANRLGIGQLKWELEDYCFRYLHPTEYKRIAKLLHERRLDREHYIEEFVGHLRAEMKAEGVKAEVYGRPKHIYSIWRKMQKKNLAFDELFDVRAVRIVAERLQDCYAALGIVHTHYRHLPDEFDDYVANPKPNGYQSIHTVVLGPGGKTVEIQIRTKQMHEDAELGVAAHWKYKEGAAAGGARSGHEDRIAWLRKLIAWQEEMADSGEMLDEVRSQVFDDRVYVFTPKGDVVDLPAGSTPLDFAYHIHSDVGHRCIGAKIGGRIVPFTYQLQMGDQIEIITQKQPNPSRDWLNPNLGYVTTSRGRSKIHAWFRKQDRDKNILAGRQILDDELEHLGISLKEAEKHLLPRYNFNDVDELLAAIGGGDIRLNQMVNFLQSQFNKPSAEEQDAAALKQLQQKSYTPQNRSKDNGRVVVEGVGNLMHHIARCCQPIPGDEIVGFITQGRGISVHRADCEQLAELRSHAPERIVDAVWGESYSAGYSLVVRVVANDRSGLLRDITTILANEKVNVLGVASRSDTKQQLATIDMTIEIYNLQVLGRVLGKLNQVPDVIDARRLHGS


How the values were obtained:
[1] = target: NirD (purified, untagged) (Escherichia coli) (UniProt P0A9I8); test: BLI; biotinylated NirD or NirD^E50K on streptavidin biosensors, RelA^N-terminal as analyte (up to 30 µM); BLItz, 25°C; 50 mM Tris-HCl pH 8.0, 500 mM NaCl, 500 mM KCl, 2 mM β-mercaptoethanol, 2% glycerol; KD from steady-state responses, one site model
[2] = target: T1, RelA^N-terminal (purified RelA catalytic domains) (Escherichia coli)
[3] = target: T1, RelA^N-terminal (purified RelA catalytic domains) (Escherichia coli); test: ITC; RelA^N-terminal (30 µM) in the cell, NirD or NirD^E50K (300 µM) in the syringe; 25°C; 50 mM Tris-HCl pH 8.0, 500 mM NaCl, 500 mM KCl, 2 mM β-mercaptoethanol, 2% glycerol; One Set of Sites model

Row | Kd [1] [nM] | in vitro pppGpp synthesis by 1 µM RelA^N-terminal with 4 µM NirD: percent of GTP converted to pppGpp within 60 min (80% without NirD) [2] [%] | Kd [3] [nM] | dH [3] [kcal/mol] | Molecule
1 | 550 |  |  |  | RelA^N-terminal (purified RelA catalytic domains) (domain or fragment)
2 |  | 30 | 340 | -3.63 | NirD (purified, untagged) (natural protein, biotinylated with EZ-Link NHS-PEG4-Biotin for the biolayer interferometry only) MSQWKDICKIDDILPETGVCALLGDEQVAIFRPYHSDQVFAISNIDPFFESSVLSRGLIAEHQGELWVASPLKKQRFRLSDGLCMEDEQFSVKHYEARVKDGVVQLRG
